{"source": "paper PMC3631714", "about": "(Chembiochem : a European journal of chemical biology, 2012)", "binders": {"B1": {"name": "first Sam domain of Odin (Odin-Sam1) (domain or fragment, human, UniProt Q92625 691-770, looked up)", "chain": "ISGLRTLEQSVGEWLESIGLQQYESKLLLNGFDDVHFLGSNVMEEQDLRDIGISDPQHRRKLLQAARSLPKVKALGYDGN"}, "B2": {"name": "Sam domain of the EphA2 receptor (EphA2-Sam) (domain or fragment, human, UniProt P29317 901-976, looked up)", "chain": "SEGVPFRTVSEWLESIKMQQYTEHFMAAGYTAIEKVVQMTNDDIKRIGVRLPGHQKRIAYSLLGLKDQVNTVGIPI"}, "B3": {"name": "Arap3-Sam wild-type (domain or fragment, human, UniProt Q8WWN8 1-80, looked up)", "chain": "MAAPQDLDIAVWLATVHLEQYADTFRRHGLATAGAARGLGHEELKQLGISATGHRKRILRLLQTGTEEGSLDPKSDSAME"}}, "key": {"Arap3-Sam wild-type": {"target": "B3", "experiment": "SPR"}, "[1]": {"target": "B1", "experiment": "NMR titration"}, "[2]": {"target": "B1", "experiment": "ITC"}}}
{"binder": "B1", "values": [{"measurement": "Kd", "setting": "Arap3-Sam wild-type", "value": "2900 ± 400", "unit": "nM"}]}
{"binder": "B2", "values": [{"measurement": "binding result", "setting": "[1]", "value": "binds"}]}
{"binder": "B3", "values": [{"measurement": "Kd", "setting": "[2]", "value": "370 ± 80", "unit": "nM"}]}
